Data from the DeepSol protein solubility set.

Experiment: soluble on expression in E. coli; label from the status in PepcDB or PDB records

For “MEDVFKGIEKEIIKIYKIPERKGRFSNFKFKNKEINELIDALGFKLYLHQVKALKYLYNKKDVVVTTSTASGKSEIFRLAIFDNFLSNPDDRYLLIYPTRALINNQYEKFSMENELFYKITNKRVKAEILTGDVGLEKRREILKDKPNVLFTTPDMLHYQILKNHNNYLWLLKNLKLLVVDELHVYRGVFGTNMVYVFKRLLKLLKRLNNNLQILCLSATLKNPKEFVKLLFNRDFEVVD”, which “soluble on expression in E. coli” value is on record?
Its value is “not soluble”.

With “MGSDKIHHHHHHMAKSDLIVGLDIGTTKICCVVGEPTEEGIDIVGIGTSPSTGLRKGVVVNIEQTVQSIKKALEEAELMAGCEIRSVYAGIAGSHIKGANSDGVIAVKGGEVAPRDVERVLDAAKALNIPMDREVIHILPQEYIVDEQRGIADPLGMAGVRLEVKVHIVTGAVASAQNIVRSCHRSGLDVSDIVLEALASSKAVLTEEEREIGVALVDLGGGTTDIAVFANDSIKHTGVLALGGQNLTNDIAFGLRTPMASAEKIKIKYGCAMAEMVRDDEGIEVASVGDREPRRLSRQVLAEICEPRMEEILSLVDQELVRYGFKNMIGAGVVLTGGTALIEGCQELGEQIFNLPTRIGYPRNVGGLKDVVNSPKFATAVGLLCYGAEKEGLELKFRIRDGNMFNRVLSRMRKWFSDIS” as the sequence, how does the “soluble on expression in E. coli” value read?
Its value is “not soluble”.

Which “soluble on expression in E. coli” value does the source give for “MEKILEKIEEFFGFIPEIFKVLEDEPEILEAYYDKMEKILSNDALPLVTKELIGVGAAAALGSEHCLKTHIKAAKRLDAGGDEILLAILIGASMAESTALSRSLRVFKEERMDL” here?
The value was “not soluble”.

Which “soluble on expression in E. coli” value does the source give for “MPLTQTQRLINTYGASLKNGTISNEELIILLDPNTFTKSEGYVDPNAPVSDSNHSKMDAIKDFVLTIGPTLDSEILHQLTSRMIELSPPGDRNTFMRGSSLEKAFLAFEMAHYPTKAEEHFNSTRVRTEFPGENDIDNLKAVILNPIIAFFQSPPGTDEKLEKLIKLCTDYKEHLKPSLTDDANNLVNKKHAIVTNMLAALTDSTAPNNATKIKNMEQILTEENKATLKDRRDSFSGARFLESILHILSLGIYSKLTKGTFKFWKSHGEALSDNIEEVSKQQPGMK” here?
The value was “not soluble”.

With “MPIGHSREVLVRLRDILALLADGCKTTSLIQQRLGLSHGRAKALIYVLEKEGRVTRVAFGNVALVCLSMDQYRQLVDGMIREVERLVTTNKLKFISPPRLHDLIIKDPQARKFFSSIIPIAHRTAIILSFLNHLLKMIYGEPYVKTDETVYLTANRKVHIEPPAK” as the sequence, how does the “soluble on expression in E. coli” value read?
Its value is “soluble”.

With “GPGSMWTTSMALMSKRSMKYQTKLRHRFRNPSVLPLKQTKAQRDETIRSVLQVRNINPANQSSYRYVEQRLYSTGSRLDREGVKLNTTYALQGLGDLEPLRNSKSFGFSEREALKYDSLQQAAKYEAPPVPFTPLAARKLAEGKLWPSAPEPDGMLSKEVPYLRHRANMSPSAQTFADKIAYHLRRSLKACPAHIAEQMDFAQLIIEEVIASRRSKLVYIVWATVDPAARFAMEPQLHRLNHWVQRLIMERIRTRPNIPQIAWVWNGGRLERELPRELKEEMQAYASDNSSTLEMRVRYLKEMDTVNQRMRNIPWFMPYLWSKEEKAGKTRRMRKDLEEYEQRRLAAKKDQRESERDMSGRSVAPQIGAPPAYVR” as the sequence, how does the “soluble on expression in E. coli” value read?
Its value is “not soluble”.

With “MGSDKIHHHHHHMARKKNTSDQSRSQAANTPIAGTYEGEYSVIELEADSYTTDGWLISINGVPSSHIVLGQPQALEFEYMRWIATGARAFIDAHQDASKLRITHLGGGACTMARYFADVYPQSRNTVVELDAELARLSREWFDIPRAPRVKIRVDDARMVAESFTPASRDVIIRDVFAGAITPQNFTTVEFFEHCHRGLAPGGLYVANCGDHSDLRGAKSELAGMMEVFEHVAVIADPPMLKGRRYGNIILMGSDTEFFSSNSTEASAITRELLGGGVPAQYKDESWVRKFASGAQARHDGVSTLQMPSDTPQHPAETPEHSNTQP” as the sequence, how does the “soluble on expression in E. coli” value read?
The value was “not soluble”.

Which “soluble on expression in E. coli” value does the source give for “MAHHHHHHMIGGQHTKERLSERLQDCQNQPKNRGYLPGTKLLTGGYSTRTLQGNWAEERMDAGYYDGEAVFPTHLARAWTTDYRTMTSNVSGSLTRPVFDQATLMDIVDHKHRSYPAHQPYLDQQRDEVMQERFKTTTRTSYINPEERKREAQLHIPPVIGRTPTAQARAVILRIQRQLLLSRHGESAFPGNILRQIRLTLQRNDTAGEGMLTVEEAEKGFEEAFLVVSRPECVALVRAFDLKEDGTISIAKIMEELRGELRDRRYSLVEKVYEMLKGFSPDGIVRLQRLAELVDVDSMNAVMNGKVTSSLAHDAFVEQWDLPIDSYISFENFLLYFMDASFEIESDQEFEVFMRNVWHLSGGNGKSMNTSCRRVRVVHRNGRMSTQEVKNDLCIKDSDPNLQERIIANLASWGIKDVARVEMLPRNL” here?
The value was “not soluble”.

For “MGSDKIHHHHHHMKIDRLISIIIVLLRRERVQAKELAEMFGVSVRTILRDVDTINLGGIPIITYQGVNGGISIAEGYRLDKSVLSAGDMATLISTLKGVAASIPDSRFDILAEKLKNPLSTSQLELLDLKSRQMIIDLSPWGTNEQLKGKITLLRQAIENYREIEFAYIDAAGTRSIRQVEPYALLLKGQSWYLFAWCLLRQDFRLFKLIRIKNLQLVNITYQPREVPMEQDYFENQWQETARPVELDLLFDKEMENVVEECFGGDIMRQDDGRIMVKVCLPENNWLYGYLLSFGGGMEVVNPPHIRSILAAIAEKIYKTYSS”, which “soluble on expression in E. coli” value is on record?
Its value is “not soluble”.

For “MSLKISVIIPIYNAENYIEKAFSSLKNQTLAQNEFEILCIDDKSTDNSLGKLKQLSKIHKNMRIINLHKNSGGPMIPRNKGIKEAKGKYIIFLDNDDYLGEEALERLFIQAEKNQSEVIFGKYVGINGRGVPQSQFKKGNRNEADILADNLVYTLAPHKMFQTAFLKTKKIYFDPNILIGEDQYFVMKAYVNAKVITVLADYDYYYVVSRGDENLSIKESKMDPREICKVVPAVVKEIEASPLHPTYKKTLIRAYIQRYFNDYITGNYNLDYKNMSERQKTFVQVMKDTIVCHLDEKMKNELPTKTRFMIDIIAENNPEKLIDVRMQMENFSKNQVVKVENGYIKGRFRKMRPQLAYDDVYDINHLNSSKVQLHSVTLQNNNYLLDISLEQSLLTRFQTALRLCLKERDGNLEIWISPLKMLSTERGIYAVDSTLFNHTCIWDLFIESEINGFKNRKRVGKDRDFEEIVSSNNTPLLIQNNSYQIKAYFTTPFSNLSFQIISEEGHHHHHH”, which “soluble on expression in E. coli” value is on record?
Its value is “soluble”.

With “GPGSGRYREGVEDCTKTLQIDKEFYKAYARRARCHEHLGDHFAAVRDFKKAIEYDSTDRELARELRAAEQNLAKEAEKERDFYFQLGVSRTATEREIKLKYRELSLRWHPDKCIGLDEVERERAEHKFKIISEAYATLVDAGKRREYDAKQDRERFTRAGGFNFSSTYSGGNANDYYRGRHRAGGNGFW” as the sequence, how does the “soluble on expression in E. coli” value read?
Its value is “soluble”.

Which “soluble on expression in E. coli” value does the source give for “MQAEGEKSDKISKISTGIPRVDELLYGGFDGRDNIVVSGNNFSQKRSFIYNFIKSSANSGMKVIIINVDGSSESLLADLARRGTDLENIILLDGFSKNFQEKVPPNAEVIDDPSNVSSVLKQYMLRAQKEKDFIFVFLSATPYLMDFNDQNRKFFVQLVHWNRKNSLLSTYVLDDFVGQTTAEWFAYMMDFSLYFKNDGDYDYMRVLSLKPVRTKDWIRIYKDSDVFTLGSFNVERIR” here?
The value was “not soluble”.

Which “soluble on expression in E. coli” value does the source give for “MGGLLFSSLQHCQQGFVISNELRQQQSELTSTWDLMLQTRINLSRSAARMMMDASNQQSSAKTDLLQNAKTTLAQAAAHYANFKNMTPLPAMAEASANVDEKYQRYQAALAELIQFLDNGNMDAYFAQPTQGMQNALGEALGNYARVSENLYRQTFDQSAHDYR” here?
Its value is “soluble”.

Which “soluble on expression in E. coli” value does the source give for “MAHHHHHHMCFVARHKPALISGEAVVWLMERITGEELDVRSLENLCSAVVHLPVAVRTALRQELMEFVAFLSLQARELLQQVPAAQGGLSGCSDADAIQYFVSHVLELTVMLRTYPDLQWPPEFLAAVDACAASVEPLQEALLSAESSPVGLMVRLLEAPTGECKRVGLAMLREAANQCQSFATLQTFRFLLLMGDHGLQDVGTSRYLRDQFAKTAADVPPVQLSVALRCLGVATAGAATQGASGAGELRATVEGTAGNADLDDELERERLDAFLQFCVEVSRKHLSQGAPLRCVLATTESLHRLGCRDTAFFADVAAYIAAKHAAAPAERESADTATAVCAALGEDLLGEYPAVREFLLDVAQRGVRGESAMSPTQWMNLHDPSNALTPLTEQQQESWDIVEEMVRTRSDDVDALVRLAEKYMELLPFARPDDHKYFFGVCEEKVLKQDKLLKKCLDTIVDCGAVSRLSAQTIASILHSLAAIRFEYFASVKRFTSSISDEQWLLMEAAPLVQILTGMDKLSLRTPAVLRRIGGRLTEICRFLTPLDTAQAIHALQALGHNDAKLLGKLAAHAAALARRFDEASMAVLFSTPSIHRLMSTPEVARPLLLQASAKIQSQHRREKISAWVRRSGLPRELIDESTRRLQVTSGDARSSEVHLRLT” here?
Its value is “not soluble”.
